Columns and labels:
[1] = target: T1, human TFPI alpha (full-length TFPIα) (human, UniProt P10646 29-304); assay: SPR (Biacore T200), Fab-Fab conjugate captured on Human Fab Binder, TFPIα in solution, 1:1 fit
T1 construct: Analyte in SPR and added to plasma (2 or 20 nM) in thrombin generation assays; also called human TFPIα
Excerpt: (§1) Binding interaction analysis was obtained by Surface Plasmon Resonance in a Biacore T200 instrument. Human Fab Binder (Human Fab Capture Kit, GE Healthcare) was immobilized to a series S CM4 sensor chip (GE Healthcare) in flow-cells 1-4 at 10000 response units (RU) using the amine coupling protocol available within the Biacore T-200 control software (GE Healthcare) and the reagents provided with the Amine Coupling Kit (GE Healthcare).The relevant Fab fragment or Fab-Fab conjugate was captured in flow-cell 2, 3 or 4 at a fixed concentration. Different concentrations of TFPI were tested by diluting TFPI in the running buffer (10 mM Hepes, pH 7.4, 300 mM NaCl, 5 mM CaCl₂, 0.05% Surfactant P20, 1 mg/ml BSA). Each sample was assayed using 300 seconds of contact time followed by 600 seconds of dissociation time at 50 μl/min flow rate. A buffer blank was also assayed. The sensor surface was regenerated with 10 mM Glycine pH 2.1 with two cycles each of 30 seconds at 50 μl/min flow rate.
(§2) Biacore T200 Evaluation software was used to analyse the data. Determination of binding constants (kₒₙ, koff, KD) was obtained assuming a 1:1 interaction of TFPI and the Fab variant or Fab-Fab conjugate of interest.

[2] = target: T1, human TFPI alpha (full-length TFPIα); assay: SPR (Biacore T200), Fab captured on Human Fab Binder, TFPIα in solution, 1:1 fit
Excerpt: as §1, §2

Row | Kd [1] [pM] | koff [1] [s⁻¹] | kon [1] [M⁻¹ s⁻¹] | Kd [2] [pM] | Binder
1 | 36 | 0.00022 | 6.2e+06 | – | Fab 0094-Fab 0089 conjugate 9004 (bispecific antibody, C-terminal cysteine coupled through the bis-maleimide linker to the Fab 0094 heavy chain; C-terminal cysteine coupled through 1,16-N,N'-bis(maleimido)-4,13-diaza-7,10-dioxa-3,14-dioxohexadecane to the C-terminal cysteine of the Fab 0089 heavy chain, KPI-2/KPI-3) heavy 1: EVQLVESGGGLVKPGGSLRLSCAASGFTFSNYAMSWVRQAPGKGLEWVSTISRSGSYSYYPDSVKGRFTISRDNAKNSLYLQMNSLRAEDTAVYYCARLGGYDEGDAMDSWGQGTTVTVSSASTKGPSVFPLAPCSRSTSESTAALGCLVKDYFPEPVTVSWNSGALTSGVHTFPAVLQSSGLYSLSSVVTVPSSSLGTKTYTCNVDHKPSNTKVDKRVESKYGPPC light 1: DIVMTQTPLSLSVTPGQPASISCKSSQSLLESDGKTYLNWYLQKPGQSPQLLIYLVSILDSGVPDRFSGSGSGTDFTLKISRVEAEDVGVYYCLQATHFPQTFGGGTKVEIKRTVAAPSVFIFPPSDEQLKSGTASVVCLLNNFYPREAKVQWKVDNALQSGNSQESVTEQDSKDSTYSLSSTLTLSKADYEKHKVYACEVTHQGLSSPVTKSFNRGEC heavy 2: QVQLQQSGAELVKPGASVKLSCKASGYTFISYYMYWVKQRPGQGLEWIGEINPSNGDTNLNEKFKSKATLTVDKSSSTVYMQLSSLTSEDSAVYYCTRWDRFDGFVYWGQGTLVTVSAASTKGPSVFPLAPCSRSTSESTAALGCLVKDYFPEPVTVSWNSGALTSGVHTFPAVLQSSGLYSLSSVVTVPSSSLGTKTYTCNVDHKPSNTKVDKRVESKYGPPC light 2: ETTVTQSPASLSMAIGGKVTIRCIISTNIDDDINWYQQKPGEPPKLLISEGNTLRPGVPSRFSSSGYGTDFVFTIENMLSEDVADYYCLQSDDLPYTFGGGTKLEIKRTVAAPSVFIFPPSDEQLKSGTASVVCLLNNFYPREAKVQWKVDNALQSGNSQESVTEQDSKDSTYSLSSTLTLSKADYEKHKVYACEVTHQGLSSPVTKSFNRGEC
2 | 38 | 0.00023 | 6.1e+06 | – | Fab 0095-Fab 0089 conjugate 9005 (bispecific antibody, C-terminal cysteine coupled through the bis-maleimide linker to the Fab 0095 heavy chain; C-terminal cysteine coupled through 1,16-N,N'-bis(maleimido)-4,13-diaza-7,10-dioxa-3,14-dioxohexadecane to the C-terminal cysteine of the Fab 0089 heavy chain, KPI-2/KPI-3; also called Fab 0095-Fab 0089 (9005)) heavy 1: EVQLVESGGGLVKPGGSLRLSCAASGFTFSNYAMSWVRQAPGKGLEWVSTISRSGSYSYYADSVKGRFTISRDNAKNSLYLQMNSLRAEDTAVYYCARLGGYDEGDAMDSWGQGTTVTVSSASTKGPSVFPLAPCSRSTSESTAALGCLVKDYFPEPVTVSWNSGALTSGVHTFPAVLQSSGLYSLSSVVTVPSSSLGTKTYTCNVDHKPSNTKVDKRVESKYGPPC light 1: DIVMTQTPLSLSVTPGQPASISCKSSQSLLESDGKTYLNWLLQRPGESPKLLIYLVSILDSGVPDRFSGSGSGTDFTLKISRVEAEDVGVYYCLQATHFPQTFGGGTKVEIKRTVAAPSVFIFPPSDEQLKSGTASVVCLLNNFYPREAKVQWKVDNALQSGNSQESVTEQDSKDSTYSLSSTLTLSKADYEKHKVYACEVTHQGLSSPVTKSFNRGEC heavy 2: QVQLQQSGAELVKPGASVKLSCKASGYTFISYYMYWVKQRPGQGLEWIGEINPSNGDTNLNEKFKSKATLTVDKSSSTVYMQLSSLTSEDSAVYYCTRWDRFDGFVYWGQGTLVTVSAASTKGPSVFPLAPCSRSTSESTAALGCLVKDYFPEPVTVSWNSGALTSGVHTFPAVLQSSGLYSLSSVVTVPSSSLGTKTYTCNVDHKPSNTKVDKRVESKYGPPC light 2: ETTVTQSPASLSMAIGGKVTIRCIISTNIDDDINWYQQKPGEPPKLLISEGNTLRPGVPSRFSSSGYGTDFVFTIENMLSEDVADYYCLQSDDLPYTFGGGTKLEIKRTVAAPSVFIFPPSDEQLKSGTASVVCLLNNFYPREAKVQWKVDNALQSGNSQESVTEQDSKDSTYSLSSTLTLSKADYEKHKVYACEVTHQGLSSPVTKSFNRGEC
3 | 5.3 | 3.8e-05 | 7.1e+06 | – | Fab 0088-Fab 0089 conjugate 9002 (bispecific antibody, C-terminal cysteine coupled through the bis-maleimide linker to the Fab 0088 heavy chain; C-terminal cysteine coupled through 1,16-N,N'-bis(maleimido)-4,13-diaza-7,10-dioxa-3,14-dioxohexadecane to the C-terminal cysteine of the Fab 0089 heavy chain, KPI-2/KPI-3) heavy 1: EVQLVESGGGLVKPGGSLRLSCAASGFTFSNYAMSWVRQTPEKRLEWVATISRSGSYSYFPDSVQGRFTISRDNAKNSLYLQMNSLRAEDTAVYYCARLGGYDEGDAMDSWGQGTTVTVSSASTKGPSVFPLAPCSRSTSESTAALGCLVKDYFPEPVTVSWNSGALTSGVHTFPAVLQSSGLYSLSSVVTVPSSSLGTKTYTCNVDHKPSNTKVDKRVESKYGPPC light 1: DIVMTQTPLSLSVTPGQPASISCKSSQSLLESDGKTYLNWYLQKPGQSPQLLIYLVSILDSGVPDRFSGSGSGTDFTLKISRVEAEDVGVYYCLQATHFPQTFGGGTKVEIKRTVAAPSVFIFPPSDEQLKSGTASVVCLLNNFYPREAKVQWKVDNALQSGNSQESVTEQDSKDSTYSLSSTLTLSKADYEKHKVYACEVTHQGLSSPVTKSFNRGEC heavy 2: QVQLQQSGAELVKPGASVKLSCKASGYTFISYYMYWVKQRPGQGLEWIGEINPSNGDTNLNEKFKSKATLTVDKSSSTVYMQLSSLTSEDSAVYYCTRWDRFDGFVYWGQGTLVTVSAASTKGPSVFPLAPCSRSTSESTAALGCLVKDYFPEPVTVSWNSGALTSGVHTFPAVLQSSGLYSLSSVVTVPSSSLGTKTYTCNVDHKPSNTKVDKRVESKYGPPC light 2: ETTVTQSPASLSMAIGGKVTIRCIISTNIDDDINWYQQKPGEPPKLLISEGNTLRPGVPSRFSSSGYGTDFVFTIENMLSEDVADYYCLQSDDLPYTFGGGTKLEIKRTVAAPSVFIFPPSDEQLKSGTASVVCLLNNFYPREAKVQWKVDNALQSGNSQESVTEQDSKDSTYSLSSTLTLSKADYEKHKVYACEVTHQGLSSPVTKSFNRGEC
4 | 170 | 0.0067 | 4e+07 | – | Fab 0313-Fab 0089 conjugate 9031 (bispecific antibody, C-terminal cysteine coupled through the bis(acetyl)ethylene diamine linker to the Fab 0313 heavy chain; C-terminal cysteine coupled through bis(bromoacetyl)ethylene diamine to the C-terminal cysteine of the Fab 0089 heavy chain, KPI-2/KPI-3; also called Fab 0313-FAb 0089 (9031)) heavy 1: EVQLVESGGGLVKPGGSLRLSCAASGFTFSNYAMSWVRQAPGKGLEWVSTISRSGSYSYYADSVKGRFTISRDNAKNSLYLQMNSLRAEDTAVYYCARLGGYDEGDAMDSWGQGTTVTVSSASTKGPSVFPLAPCSRSTSESTAALGCLVKDYFPEPVTVSWNSGALTSGVHTFPAVLQSSGLYSLSSVVTVPSSSLGTKTYTCNVDHKPSNTKVDKRVESKYGPPC light 1: DIVMTQTPLSLSVTPGQPASISCKSSQSLLESDGKTYLNWYLQKPGQSPQLLIYLVSILDSGVPDRFSGSGSGTDFTLKISRVEAEDVGVYYCLQATHFPQTFGGGTKVEIKRTVAAPSVFIFPPSDEQLKSGTASVVCLLNNFYPREAKVQWKVDNALQSGNSQESVTEQDSKDSTYSLSSTLTLSKADYEKHKVYACEVTHQGLSSPVTKSFNRGEC heavy 2: QVQLQQSGAELVKPGASVKLSCKASGYTFISYYMYWVKQRPGQGLEWIGEINPSNGDTNLNEKFKSKATLTVDKSSSTVYMQLSSLTSEDSAVYYCTRWDRFDGFVYWGQGTLVTVSAASTKGPSVFPLAPCSRSTSESTAALGCLVKDYFPEPVTVSWNSGALTSGVHTFPAVLQSSGLYSLSSVVTVPSSSLGTKTYTCNVDHKPSNTKVDKRVESKYGPPC light 2: ETTVTQSPASLSMAIGGKVTIRCIISTNIDDDINWYQQKPGEPPKLLISEGNTLRPGVPSRFSSSGYGTDFVFTIENMLSEDVADYYCLQSDDLPYTFGGGTKLEIKRTVAAPSVFIFPPSDEQLKSGTASVVCLLNNFYPREAKVQWKVDNALQSGNSQESVTEQDSKDSTYSLSSTLTLSKADYEKHKVYACEVTHQGLSSPVTKSFNRGEC
5 | – | – | – | 1700 | Fab 2F22 (Fab, V domains shown, KPI-1 specific; HC truncated after the hinge cysteine; also called Fab fragment 2F22; extended Fab 2F22 (Fab for chemical coupling)) VH: QVQLKQSGPGLVQPSQSLSITCTVSGFSLTNYGVHWVRQSPGKGLEWLAVIWRGGSIDYNAAFMSRLSITKDNSKSQVFFKMNSLQADDTAIYYCAKNSHGNYVGYAMDYWGQGTSVTVSS VL: GIVMTQSQKFMSTTVGDRVSITCKASQSVGPAVAWYQQKPGQSPKLLIYSASNRYTGVPDRFTGSGSGADFTLTISNLHSEDLADYFCQQYTSYPTFGGGTKLEIKR
